Source: article PMC11538491
Read-outs that look alike come from different tables or passages of the source.

B1: serpinA3 from human plasma, bound to the B19V capsid (natural protein)
chain: HPNSPLDEENLTQENQDRGTHVDLGLASANVDFAFSLYKQLVLKAPDKNVIFSPLSISTALAFLSLGAHNTTLTEILKGLKFNLTETSEAEIHQSFQHLLRTLNQSSDELQLSMGNAMFVKEQLSLLDRFTEDAKRLYGSEAFATDFQDSAAAKKLINDYVKNGTRGKITDLIKDLDSQTMMVLVNYIFFKAKWEMPFDPQDTHQSRFYLSKKKWVMVPMMSLHHLTIPYFRDEELSCTVVELKYTGNASALFILPDQDKMEEVEAMLLPETLKRWRDSLEFREIGELYLPKFSISRDYNLNDILLQLGIEEAFTSKADLSGITGARNLAVSQVVHKAVLDVFEEGTEASAATAVKITLLSALVETRTIVRFNRPFLMIIVPTDTQNIFFMSKVTNPKQA
modifications: five extra densities at the predicted N-glycosylation sites (positions not given)

Columns and labels:
[1] = molecular target: parvovirus B19 (B19V) virion purified from infected patient plasma, genotype 1 (human parvovirus B19); experiment: cryo-EM structure
[2] = molecular target: parvovirus B19 (B19V) virion purified from infected patient plasma, genotype 1 (human parvovirus B19); experiment: cryo-EM structure; remark: listed apart in the source

Molecule | occupancy of the binding sites [1] [%] | stoichiometry N (molecules per capsid) [1] | occupancy of the binding sites [2] [%] | stoichiometry N (molecules per capsid) [2] | stoichiometry N (sites occupied per capsid (of 30)) [2]
inter-alpha-trypsin inhibitor heavy chain 4 (ITIH4) from human plasma, bound to the B19V capsid (natural protein) | 19.4 | 12 | – | – | –
B1 | – | – | 38.3 | 23 | 22
